Test results published in patent US10017546B2 (KOREA ADVANCED INSTITUTE OF SCIENCE AND TECHNOLOGY, priority 2015, dated 2018).
Like-named read-outs stand apart in the source and are kept apart here.

Experiments:
biotin-GFP [1] = molecular target: T1, biotin-GFP (Aequorea victoria, UniProt P42212, A206V/E111V/F223Y/F64L/F99S/I128T/I167V/I171V/K158E/K166T/K26E/L221H/M153T/N105K/N149D/N164E/Q80R/S205T/S30R/S65T/T225N/V163A/Y145F/Y39I); conditions: for percentage of dissociated biotin conjugate after 10 h incubation with excess biotin / Dissociation rate: Biotin-GFP; for percentage of dissociated biotin conjugate after 10 h incubation with excess biotin: 23° C.; for Dissociation rate: excess biotin; for dissociation of biotin-GFP from mRA mutants (in words): mutants at E115, Q46, S23, biotin addition, 45° C. for 30 min
Description: After incubation at the indicated temperature (23° C., 37° C., or 45° C.) for varying time points (between 0 to 10 h), protein-conjugate mixtures were loaded onto a 15% native polyacrylamide gel. […] Data as ln(fraction bound) versus time and fitting the data to a straight line by linear regression.

biotin-GFP [2] = molecular target: T1, biotin-GFP; conditions: 15% native-PAGE
Excerpt: To monomerize rhizavidin, the present inventors introduced various numbers (one, six, and ten) of charged and hydrophilic amino acids, which have long side chains, at the dimeric interface (FIG. 1(a) and FIG. 4).

biotin-DNA = test: Gel-based off-rate measurement against biotin-DNA-fluorescein; format: binding; conditions: for percentage of dissociated biotin conjugate after 10 h incubation with excess biotin: 23° C.
biotin-AP = test: Gel-based off-rate measurement against biotin-AP peptide; format: binding; conditions: 37° C., excess biotin
biotin-protein G = test: Gel-based off-rate measurement against biotin-protein G; format: binding; conditions: 37° C., excess biotin
[3] = Stability / aggregation of monomerized proteins in buffered solutions; format: physicochemical; conditions: up to 1 mg/ml where stated
HeLa cells = test: Clustering and internalization of biotinylated cell-surface proteins; format: cell-based; conditions: Cy5-labeled avidin proteins, 37° C.
Description: Following biotinylation, the cells were washed twice with cold PBS-CM, treated with 100 mM glycine in PBS-CM for blocking, and washed again twice with cold PBS. […] Unbound avidin proteins were removed, and media was replaced with pre-warmed DMEM (37° C.). Cells were incubated for 5, 10, or 30 m at 37° C. Cells were washed, and fixed with 4% formaldehyde in PBS for confocal imaging (ZEISS, LSM510 META). To visualize endosome or lysozome-specific proteins, cells were fixed, permeabilized, and incubated with a primary antibody: anti-Rab11 (a GTPase of recycling endosome, Abcham) or anti-LAM P1 (Lysosomal-associated membrane protein 1, Abcham). Afterward, cells were incubated with a fluorescent secondary antibody (goat anti-rabbit 555, Abcham), and images were acquired with a confocal microscopy (ZEISS, LSM510 META).

[4] = immobilized biotin or biotin-GFP, avidin proteins 5 μM
Description: Surface Plasmon Resonance (SPR) Analysis
SPR tests were performed in a Biacore 3000 instrument using dextran CM5 gold chips (GE Healthcare) and a PBS buffer as a running solution.

Row | Molecule | percentage of dissociated biotin conjugate after 10 h incubation with excess biotin (biotin-GFP [1]) [% for 10 h*] | Dissociation rate (biotin-GFP [1]; 37° C.) | Dissociation rate (biotin-GFP [1]; 45° C.) | complexes formed with biotin-GFP (biotin-GFP [2]) | percentage of dissociated biotin conjugate after 10 h incubation with excess biotin (biotin-DNA) [% for 10 h*] | Dissociation rate (biotin-AP) | Dissociation rate (biotin-protein G) | stability / aggregation in buffered solutions [3] | biotin-GFP dissociated after biotin addition (biotin-GFP [1]; excess free biotin, 37° C. for 30 min, native-PAGE) | percentage of dissociated biotin conjugate after 10 h incubation with excess biotin (biotin-GFP [1]; listed as MA) | dissociation of biotin-GFP from mRA mutants (in words) (biotin-GFP [1]) | incubation time after which avidin protein was internalized (HeLa cells) [min] | percentage of dissociated biotin conjugate after 10 h incubation with excess biotin (biotin-DNA; listed as monodin) [%] | Dissociation rate (biotin-DNA; 37° C., excess biotin) | dissociation from surface-bound biotin conjugates by SPR [4]
1 | Rhizavidin (RA): natural dimeric avidin protein from Rhizobium etli; core rhizavidin SEQ ID NO: 1 (protein, amino acid sequence of truncated Rhizavidin) FDASNFKDFSSIASASSSWQNQSGSTMIIQVDSFGNVSGQYVNRAQGTGCQNSPYPLTGRVNGTFIAFSVGWNNSTENCNSATGWTGYAQVNGNNTEIVTSWNLAYEGGSGPAIEQGQDTFQYVPTTE | 18 ± 3.0 | 5.0 ± 0.1 × 10^−5 s^−1 | 6.0 ± 0.6 × 10^−5 s^−1 | two separated complexes | 48 ± 6.1 | 4.9 ± 0.7 × 10^−5 s^−1 | 3.2 ± 0.8 × 10^−5 s^−1 | – | – | – | – | – | – | – | –
2 | mRA: monomeric rhizavidin with six interfacial mutations (SEQ ID NO: 2) (protein, amino acid sequence of mRA) FDASNFKDFSSIASASSSWQNQSGSTMIIQVDSFGNVSGQYVNRAQGTGCQNSPYPLTGRVNGTFIDFSVKWNNSTENCNSNTQWTGYAQVNGNNTEIVTRWNLKYEGGSGPAIEQGQDTFQYVPTTE | – | – | – | – | – | – | – | stable without any aggregation | Over 40% | – | – | – | – | – | –
3 | Monodin (MA): monomeric avidin-like protein of SEQ ID NO: 3; mRA further carrying S23H, Q46E and E115W (protein, amino acid sequence of MA, mRA further carrying S23H, Q46E and E115W) FDASNFKDFSSIASASSSWQNQHGSTMIIQVDSFGNVSGQYVNRAEGTGCQNSPYPLTGRVNGTFIDFSVKWNNSTENCNSNTQWTGYAQVNGNNTEIVTRWNLKYEGGSGPAIWQGQDTFQYVPTTE | 6.7 ± 1.1 | 2.3±0.1×10^−5 s^−1 | 6.4±0.2×10^−5 s^−1 | – | 22 ± 6.0 | 5.1 ± 0.7 × 10^−5 s^−1 | 4.6 ± 1.5 × 10^−5 s^−1 | – | – | less than 7% | highly slowed off-rate | 30 | 22 | 2.7±0.3×10^−5 s^−1 | not observed
4 | mRAWW: mRA with two tryptophan mutations (E115W and S23W) (protein) FDASNFKDFSSIASASSSWQNQWGSTMIIQVDSFGNVSGQYVNRAQGTGCQNSPYPLTGRVNGTFIDFSVKWNNSTENCNSNTQWTGYAQVNGNNTEIVTRWNLKYEGGSGPAIWQGQDTFQYVPTTE | – | – | – | – | – | – | – | highly prone to aggregation | – | – | the least dissociation of biotin-GFP | – | – | – | –
